These results are taken from patent publication US20250154240A1, “ANTI-HUMAN CXCL1 ANTIBODY” (CHIOME BIOSCIENCE INC., priority 2022, published 2025).

First the molecules themselves.
B1: modified human antibody 028-8-12: human antibody 028-8-12 with amino acid modifications in CDR and VL regions; VH SEQ ID NO: 63, VL SEQ ID NO: 67 (antibody, V domains shown)
VH: EVQLLESGGGLVQPGGSLRLSCAASGFTFSELSMSWVRQAPGKGLEWVSAISGSGGSTYYASSVKGRFTISRDNSKNTLYLQMNSLRAEDTAVYYCAREGGRLEPYYYYYAMDVWGQGTPVTVSS
VL: DIQMTQSPSSLSASVGDRVTITCRASQSISDNLHWYQQKPGKAPKLLIYDASNLESGVPSRFSGSGSGTDFTLTISSLQPEDFATYYCQQYYSTPLTFGQGTKLEIK
B2: Hu4A-2F7: humanized antibody VH1/VL1; VH SEQ ID NO: 72, VL SEQ ID NO: 74 (antibody, V domains shown)
VH: QVTLKESGPALVKPTQTLTLTCTFSGFSLSTSGMGVDWIRQPPGKALEWLAHIWWDDDKYYNPSLKSQLTISKDTSKNQVVLTMTNMDPVDTATYYCARSYGYDMDYYAMDYWGQGTTVTVSS
VL: DIQMTQSPSSLSASVGDRVTITCRASQEISGYLSWLQQKPGKAPKRLIYAASTLSSGVPSRFSGSGSGTDFTLTISSLQPEDFATYYCLQYASYPPWTFGGGTKVEIK
B3: Hu1A-7H10: humanized antibody VH1/VL1; VH SEQ ID NO: 68, VL SEQ ID NO: 70 (antibody, V domains shown)
VH: QVTLKESGPVLVKPTETLTLTCTVSGFSSTTYGVHWVRQPPGKALEWLGVIWAGGSTNYNAALMSRLTISKDTSKSQVVLTMTNMDPVDTATYYCATQYHYPFAYWGQGTLVTVSS
VL: DIQMTQSPSSLSASVGDRVTITCKASENVGIYVSWYQQKPGKAPKLMIYGASNRNTGVPSRFSGSGSGTDFTLTISSLQPEDFATYYCGQSYSYPLTFGGGTKVEIK

For one assay, the system named is CXCR2-expressing cells. The assay can be described thus: In vivo migration inhibitory activity test on CXCR2-expressing cells, OCUM-12 orthotopic transplantation (prevention model). The arrangement: species or system mouse. The following applies: 400 μg/head intraperitoneally twice a week, 3 weeks; compared to hIgG1 antibody.
From the text: (§1) The stomachs after measurement of the tumor size in [3-1] above were excised and fixed overnight at room temperature with a 10% neutral buffered formalin solution (Wako Pure Chemical Industries, Ltd., Japan), followed by replacement with PBS. Then, paraffin embedding and section preparation were outsourced to Applied Medical Research Laboratory, Japan. The prepared gastric tumor sections were immunohistologically stained with an anti-CXCR2 antibody to evaluate in vivo CXCR2 cell migration inhibitory activity. The sections were deparaffinized and rehydrated, and then treated to inactivate endogenous peroxidase. After antigen activation treatment, the sections were blocked with PBS containing 2% skimmed milk and 0.1% Tween-20, and reacted overnight at 4° C. with an anti-CXCR2 antibody (Biorbyt) as a primary antibody, which had been diluted to 0.3 μg/mL with the blocking solution. After washing with PBS containing 0.1% Tween-20, the sections were reacted at room temperature for 1 hour with an HRP-labeled goat anti-rabbit IgG antibody (Abcam) as a secondary antibody. After washing with a washing solution, a simple stain DAB solution (5052, Nichirei Corporation, Japan) was used to cause color development. After images of the stained tissues were captured with an Explore (Olympus Corporation, Japan), imaging software CellSens (Olympus Corporation, Japan) was used to calculate CXCR2-positive cells per unit area.
(§2) Navarixin is among small molecular compounds that act on CXCR2 and inhibit CXCL1-CXCR2 signaling. […] Then, using a model with OCUM-12 orthotopic transplantation, the migration inhibition of CXCR2-expressing cells and antitumor activity were evaluated in vivo for Navarixin. As a vehicle, ultrapure water containing 20% 2-hydroxypropyl-β-cyclodextrin (FUJIFILM Wako Pure Chemical Corporation, Japan) was used. Navarixin (MedChemExpress) was dissolved in ultrapure water containing 20% 2-hydroxypropyl-β-cyclodextrin, and orally administered at a dose of 100 mg/kg/day in a schedule of once a day for 5 consecutive days, followed by a 2-day withdrawal.
as §1, with “after measurement were excised” for “after measurement of the tumor size in [3-1] above were excised”, “and 0.1% Tween-20 (hereinafter referred to as the blocking solution), and reacted” for “and 0.1% Tween-20, and reacted”, “been diluted 1667-fold with the” for “been diluted to 0.3 μg/mL with the”, “to calculate positive cells per” for “to calculate CXCR2-positive cells per”
The dose-response relationship between antibody dose and in vivo antitumor activity or CXCR2 migration inhibitory activity was evaluated in a xenograft prevention model with OCUM-12 orthotopic transplantation. A prevention model is a model designed to start antibody administration from the day following tumor transplantation. […]
Take B1: the “Migration of CXCR2-expressing cells (positive cells per unit area)” value (“Migration … (positive cells per unit area)” below) is reported as “significantly suppress the migration of CXCR2-expressing cells”.

In the case of B2, the “Migration … (positive cells per unit area)” value is on record as “significantly suppress the migration of CXCR2-expressing cells”.

For the molecule B3, the “Migration … (positive cells per unit area)” value was “significantly suppress the migration of CXCR2-expressing cells”.

A further assay concerns OCUM-12 gastric cancer cell line. Briefly: Antitumor activity test, model with OCUM-12 orthotopic transplantation (prevention model). It is filed as in vivo, mouse. The following applies: 400 μg/head intraperitoneally twice a week, 3 weeks; compared to hIgG1 antibody. As for the experimental part: A model with OCUM-12 orthotopic transplantation was prepared to evaluate the above 4 types of candidate antibodies for their in vivo CXCR2 migration inhibitory activity and antitumor activity in a xenograft model with OCUM-12 orthotopic transplantation.
For use as mice, female nude mice (BALB/cAJcl-nu/nu) at 5 to 6 weeks of age were purchased from CLEA Japan, Inc., Japan. For use as human cancer cells, a gastric cancer cell line, OCUM-12, was provided by University Public Corporation Osaka, Japan.
OCUM-12 cells were cultured in D-MED medium (FUJIFILM Wako Pure Chemical Corporation, Japan) supplemented with 10% fetal bovine serum (FBS; Sigma-Aldrich Corporation) and 1/100 volumes of a penicillin-streptomycin mixture (Nacalai Tesque, Inc., Japan). The cells to be transplanted were detached with 0.25% trypsin/0.02% EDTA (Thermo Fisher Scientific) and washed with PBS, and 4× 10^5 cells per mouse were transplanted into the gastric wall of each mouse.
On the day following the above transplantation, the mice were randomized into groups (8 or 6 mice per group) and intraperitoneally administered with PBS as a control and with 4 types of candidate antibodies (1A-7H10, 4A-2F7, 5A-5E11 and 028-8-12) and 3 types of non-candidate antibodies (1A-3C6, 1A-2H3 and 4A-5B11) at a dose of 20 mg/kg. In addition, mouse IgG1 as a control was intraperitoneally administered at a dose of 20 mg/kg, and 3 types of antibodies (5A-5E11, 1A-4H10 and 4A-7G7) among the candidate antibodies were intraperitoneally administered at a dose of 20 mg/kg. The administration of these antibodies was then continued with a frequency of twice a week until the completion of the test. After 3 weeks had passed from the transplantation, the mice were sacrificed, and the short- and long-axis diameters of tumors formed in their gastric walls were each measured with a caliper. The tumor size was calculated according to the following: 1/2 short-axis diameter (mm)×1/2 long-axis diameter (mm)×3.14.
as §2
The humanized antibodies were evaluated for their in vivo antitumor activity and CXCR2 migration inhibitory activity in a xenograft model with OCUM-12 orthotopic transplantation. Procedures for the evaluation are shown below.
For use as mice, female nude mice (BALB/cAJcl-nu/nu) at 5 to 6 weeks of age were purchased from CLEA Japan, Inc., Japan. For use as human cancer cells, gastric cancer cell line, OCUM-12, was provided by Osaka Metropolitan University, Japan.
OCUM-12 cells were cultured in D-MED medium (FUJIFILM Wako Pure Chemical Corporation, Japan) supplemented with 10% fetal bovine serum (hereinafter abbreviated as FBS; Sigma-Aldrich Corporation) and 1/100 volumes of a penicillin-streptomycin mixture (Nacalai Tesque, Inc., Japan). The cells to be transplanted were detached with 0.25% trypsin/0.02% EDTA (Thermo Fisher Scientific) and washed with PBS, and 4×10^5 cells per mouse were transplanted into the gastric wall of each mouse. On the day following the transplantation, the mice were randomized into groups (8 mice per group) and intraperitoneally administered with test antibodies at a dose of 400 μg/head. PBS was intraperitoneally administered in a volume of 200 μL with a frequency of twice a week for 3 weeks, starting from the day following the transplantation. […]
In the case of B1, the “Antitumor activity (tumor area)” value was “significantly suppress an increase in the tumor area”.

B2: the “Antitumor activity (tumor area)” value is listed as “significantly suppress an increase in the tumor area”.

On to B3, for which the “Antitumor activity (tumor area)” value was “significantly suppress an increase in the tumor area”.
